The data set is described as follows: protein stability index of a GFP-peptide fusion (GPS, HEK-293T) (PSI 1-6); higher = more stable.
[1] abbreviates: treatment: DMSO, c terminus: a fixed tail appended.
Where [2] appears, read: treatment: MLN4924 1 uM, 8 h, c terminus: a fixed tail appended.

± gives the standard deviation.
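Note: 24-mer peptide tiles fused after GFP, lentivirally expressed, FACS-sorted into six equal bins by GFP/DsRed ratio, decoded by Illumina sequencing, PSI is the read-weighted mean bin number.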

Sequence FNPEVAKYLKVPQDPLKFYKKIYF [IQUB] returned a protein stability index under setting [1] of 2.12 ± 0.36 and a protein stability index under setting [2] of 2.24 ± 0.043.

Turning to FPYEYSYGLQGGMAFLDKRLQVKE [ATL3], the protein stability index amounted to 2.53 ± 0.1 under setting [1] and 2.69 ± 0.12 under setting [2].

FQEAAGPREALSRLQELCHGWLRP [ZNF263]: the protein stability index amounted to 2.66 ± 0.4 under setting [1] and 2.67 ± 0.35 under setting [2].

Turning to FQFTDWPEQGVPKSGEGFIDFIGQ [PTPRD], the protein stability index by setting is: under setting [1], 2.68 ± 0.22; under setting [2], 2.84 ± 0.31.

As to FQILLLSDPSTIEASNFQMDRKTR [PNLIPRP1], the protein stability index runs as follows: under setting [1], 2.03 ± 0.43; under setting [2], 2.42 ± 0.28.

On to FRADQRSGPRQLLTLYNPTGTALR [MOSPD3], for which the protein stability index runs as follows: under setting [1], 3.2 ± 0.22; under setting [2], 3.39 ± 0.35.

Consider FRDATSAPLRKLSVDLIKTYKHIN [DYRK1B], for which the protein stability index worked out at 3.36 ± 0.17 under setting [1] and 3.39 ± 0.27 under setting [2].

With FRKVKQMHLNFMDEKDRIITAFYN [DNAJC4], the protein stability index reads like this: under setting [1], 2.26 ± 0.2; under setting [2], 2.41 ± 0.28.

Take FRLETLAGLRSRRLKQPKAFCLRD [MIR22HG]: the protein stability index is, setting by setting: under setting [1], 2.52 ± 0.28; under setting [2], 2.46 ± 0.29.

For the sequence FRYLQGMLEAGEGGDWPGPGGPRN [PDLIM4], the protein stability index reads like this: under setting [1], 2.76 ± 0.12; under setting [2], 3.64 ± 0.49.

As for FSDSSMDHFQKFLPTVGGQLGTAG [MYOZ1], the protein stability index was found to be 2.78 ± 0.31 under setting [1] and 3.23 ± 0.34 under setting [2].

As for FSTWNLDHIIEKKRTIIPTLVEAI [DFFB], the protein stability index was 2.44 ± 0.45 under setting [1] and 2.55 ± 0.34 under setting [2].

With FTNDKIINLPVEEFNELLSKYQLS [NFE2L1], the protein stability index by setting is: under setting [1], 2.85 ± 0.28; under setting [2], 2.76 ± 0.16.

Turning to FTTNKCKGFGFVTMTNYDEAAMAI [ELAVL3], the protein stability index by setting is: under setting [1], 2.49 ± 0.65; under setting [2], 2.51 ± 0.14.

On to GAAESPYSHLGGIDYKTTTILLDG [RAB40A], for which the protein stability index runs as follows: under setting [1], 3.61 ± 0.4; under setting [2], 3.57 ± 0.17.

GALMEVMQKRSKAIHSSDEDEDED [WASL]: the protein stability index was found to be 5.49 ± 0.19 under setting [1] and 5.41 ± 0.17 under setting [2].

For GANVKPRNSTPPSLARNPAPGVLT [ZC2HC1A], the protein stability index reads like this: under setting [1], 4.24 ± 0.23; under setting [2], 4.16 ± 0.5.

With GASTFKEEPQTVPEARSRDATPPV [JUNB], the protein stability index reads like this: under setting [1], 5.34 ± 0.19; under setting [2], 5.32 ± 0.15.

Turning to GAVYADSGNFERCIRLWKYALDMQ [FEM1A], the protein stability index was 2.38 ± 0.14 under setting [1] and 2.24 ± 0.38 under setting [2].

As to GDVPPSMSGSCAVCVDRVLYLFGG [KLHDC2], the protein stability index under setting [1] was 2.74 ± 0.79 and the protein stability index under setting [2] was determined as 2.47 ± 0.55.

Take GEEQSQYMHVGSCQHLSSSAEELR [KCNA3]: the protein stability index runs as follows: under setting [1], 4.83 ± 0.25; under setting [2], 4.52 ± 0.2.

Turning to GEGEPGQGEGPEAGDAEVCPTPAR [NOP53], the protein stability index is, setting by setting: under setting [1], 5.71 ± 0.2; under setting [2], 5.67 ± 0.13.

As to GEKPYKCTHCSKSFRQRAGLIMHQ [ZNF449], the protein stability index reads like this: under setting [1], 3.59 ± 0.46; under setting [2], 3.75 ± 0.27.

As to GFLQALSLAVDKQFEERKKLAAYI [TRIP13], the protein stability index reads like this: under setting [1], 3.35 ± 0.22; under setting [2], 2.54 ± 0.39.

For the sequence GGFGGGFAGGFVDFGACDGGLLTG [KRT13], the protein stability index stood at 2.71 ± 0.084 under setting [1] and 3.12 ± 0.25 under setting [2].

On to GGGDISVKELGTVMRMLGQTPTKE [TNNC2], for which the protein stability index was 4.04 ± 0.05 under setting [1] and 3.64 ± 0.83 under setting [2].

As for GGGGSRSISASSARFVSSGSGGGY [KRT15], the protein stability index worked out at 4.23 ± 0.29 under setting [1] and 4.13 ± 0.3 under setting [2].

Take GGGTPSLASPHTVAAVLEAVAQTA [RSAD1]: the protein stability index is, setting by setting: under setting [1], 3.46 ± 0.52; under setting [2], 3.54 ± 0.3.

Regarding GGPPAGPGGVYAGPEPPPVYTNLS [JUNB], the protein stability index is 4.15 ± 0.12 under setting [1] and 4.56 ± 0.099 under setting [2].

On to GGSSGQVTSNGSIGRDPPAETQPQ [CLPTM1], for which the protein stability index by setting is: under setting [1], 5.47 ± 0.24; under setting [2], 5.42 ± 0.21.

GGTDPHGYHQVPGSAAPGSPLAAD [FOXJ1]: the protein stability index runs as follows: under setting [1], 5.11 ± 0.099; under setting [2], 5.234 ± 0.051.

Turning to GGTEEKSSLLMSCLACDTWAVIL [RPAIN], the protein stability index (treatment: DMSO, c terminus: native) came to 2.7 ± 0.86 and the protein stability index (treatment: MLN4924 1 uM, 8 h, c terminus: native) turned out to be 2.4 ± 0.84.

GHGAEQAAAFPTEDSRTSKESMSE [EHMT1]: the protein stability index runs as follows: under setting [1], 5.69 ± 0.2; under setting [2], 5.19 ± 0.62.

In the case of GHLEVVRYLVGEHQADLEVANRHG [FEM1A], the protein stability index runs as follows: under setting [1], 3.4 ± 0.48; under setting [2], 3.24 ± 0.41.

Take GHSSSRDDYPSRGYSDRDGYGRDR [RBMX]: the protein stability index is 4.87 ± 0.18 under setting [1] and 4.88 ± 0.16 under setting [2].

As for GHVEVARLLLDSGAQVNMPADSFE [ANKRD17], the protein stability index worked out at 3.88 ± 0.091 under setting [1] and 3.83 ± 0.24 under setting [2].

In the case of GIAHKIEAGNEFKNIFGTPEFVAP [DAPK3], the protein stability index was 3.44 ± 0.61 under setting [1] and 3.64 ± 0.39 under setting [2].

For the sequence GILEHVDSASPVEDTSNDESSILG [M1AP], the protein stability index under setting [1] worked out at 5.56 ± 0.26 and the protein stability index under setting [2] was 5.48 ± 0.4.

On to GKGRTASPINSPARGTPSPKRMPS [FSD1], for which the protein stability index is, setting by setting: under setting [1], 5.13 ± 0.25; under setting [2], 5.05 ± 0.32.

In the case of GKKDVSHSSPVDLKIPQVRGMDLS [LCOR], the protein stability index runs as follows: under setting [1], 4.32 ± 0.31; under setting [2], 4.24 ± 0.36.

Take GKNPDVDTSFLPDRDREEEENRLR [FAM50A]: the protein stability index under setting [1] came to 5.26 ± 0.11 and the protein stability index under setting [2] is 5.49 ± 0.38.

For GKTYCKRDYVRLFGIKCAKCQVGF [ISL2], the protein stability index runs as follows: under setting [1], 2.03 ± 0.19; under setting [2], 2.17 ± 0.23.

With GLLETEPLQGTDEDAVASADFSSM [TPD52L1], the protein stability index runs as follows: under setting [1], 5.34 ± 0.3; under setting [2], 5.29 ± 0.37.

With GLNHSLSYDVALHRTRLQDLRVLV [SCARA5], the protein stability index runs as follows: under setting [1], 2.2 ± 0.34; under setting [2], 2.13 ± 0.1.

For GLQEEPVEGFRVTLVDEGDLYNWE [CDC34], the protein stability index reads like this: under setting [1], 4.26 ± 0.14; under setting [2], 4.15 ± 0.34.

GLQVEGLRRRLEELQQELSLKDQE [LRRC45]: the protein stability index reads like this: under setting [1], 4.47 ± 0.17; under setting [2], 4.73 ± 0.16.

As for GLSAPHSRQIPAPQGAVLVQREKD [KISS1], the protein stability index reads like this: under setting [1], 5.34 ± 0.19; under setting [2], 5.19 ± 0.087.

GLSSSSARFLSRSIPSLQSEYVHY [CDC14A] yielded a protein stability index under setting [1] of 2.97 ± 0.53 and a protein stability index under setting [2] of 3.02 ± 0.21.

Consider GLVYRLNRFRVEISFHFEVTNHNI [TRIM43], for which the protein stability index by setting is: under setting [1], 3.33 ± 0.66; under setting [2], 3.35 ± 0.8.

In the case of GNPFLDVPQALSATTYKHGVLTRK [PSD2], the protein stability index came out at 4.08 ± 0.3 under setting [1] and 4.18 ± 0.4 under setting [2].

For GQCGENLAWASYDQTGKEVADRWY [GLIPR2], the protein stability index was found to be 2.68 ± 0.31 under setting [1] and 3.13 ± 0.26 under setting [2].

For GRASRFLQSISWDPEDFEDAWKRP [TLE6], the protein stability index reads like this: under setting [1], 3.15 ± 0.21; under setting [2], 3.13 ± 0.31.

As to GRLSMAAADIVNFLTVGSVLQMWH [ZBTB22], the protein stability index worked out at 3.33 ± 0.17 under setting [1] and 3.4 ± 0.48 under setting [2].

GRPSMVWLSANPCPHCGDRTFYDP [PRAME]: the protein stability index under setting [1] is 2.24 ± 0.26 and the protein stability index under setting [2] is 2.33 ± 0.41.

In the case of GRWVNENCRLQSPYFSPSASFHHK [CBY2], the protein stability index was determined as 2.89 ± 0.19 under setting [1] and 2.86 ± 0.31 under setting [2].

GSRISVSRSTSFRGGMGSGGLATG [KRT18]: the protein stability index is 3.65 ± 0.19 under setting [1] and 4.04 ± 0.69 under setting [2].

Turning to GSVYFWATPRQVPSLQHLCRMSIR [WSB1], the protein stability index under setting [1] was 3.05 ± 0.2 and the protein stability index under setting [2] stood at 2.7 ± 0.043.

As to GVIQSVIGWKTVRMYPFQIHSIAL [CDS2], the protein stability index by setting is: under setting [1], 2.81 ± 0.34; under setting [2], 2.94 ± 0.35.

As for GVMSAYAMCVRYDGVEVDDSYCDA [ADAMTSL2], the protein stability index by setting is: under setting [1], 3.05 ± 0.15; under setting [2], 2.91 ± 0.23.

As for GYPPFCSETPQETYRKVMNWKETL [STK38L], the protein stability index was found to be 2.88 ± 0.29 under setting [1] and 3.05 ± 0.37 under setting [2].

For the sequence GYTFGQDISETFNHANGLTLVSRA [PPP2CA], the protein stability index reads like this: under setting [1], 3.26 ± 0.3; under setting [2], 3.19 ± 0.28.

In the case of HASGDASYSAGDSGDAAAQPAFTG [EPB41L3], the protein stability index by setting is: under setting [1], 5.32 ± 0.21; under setting [2], 5.21 ± 0.21.

Regarding HAVSTCHFCVDDTKLLSGSYDCTV [WDR88], the protein stability index stood at 2.46 ± 0.26 under setting [1] and 2.44 ± 0.33 under setting [2].

On to HDIVRFLVQLDDYRFASAGDDGIV [WDR41], for which the protein stability index is, setting by setting: under setting [1], 2.21 ± 0.061; under setting [2], 2.2 ± 0.25.

For the sequence HDRNMDWVSTQLQATCNVHKSAFN [FADS1], the protein stability index was 3.22 ± 0.29 under setting [1] and 3.46 ± 0.2 under setting [2].

As to HELGHVFNMLHDNSKPCISLNGPL [ADAMTS4], the protein stability index runs as follows: under setting [1], 3 ± 0.49; under setting [2], 2.93 ± 0.28.

As to HFAEEERSKYDYLMILRRVVNEST [TENT5C], the protein stability index runs as follows: under setting [1], 2.55 ± 0.26; under setting [2], 2.86 ± 0.37.

Regarding HGHLILHSMHKYQPRIHLVRAAQL [TBX6], the protein stability index came to 2.1 ± 0.29 under setting [1] and 2.07 ± 0.27 under setting [2].

On to HGNQSAGEDQAFGDWLLTANGSEI [SLC22A15], for which the protein stability index is 4.56 ± 0.34 under setting [1] and 4.67 ± 0.18 under setting [2].

HHFNSSHLEIDDMYTPAYGDFDFD [MYORG] registered a protein stability index under setting [1] of 4.34 ± 0.11 and a protein stability index under setting [2] of 4.23 ± 0.24.

Consider HHGGDYKHWREWGSHAQTSQIQSI [CRYBA1], for which the protein stability index is, setting by setting: under setting [1], 3.1 ± 0.14; under setting [2], 3.19 ± 0.26.

HLEDWLEKRAKRLSSAPSSRAEPI [ZMAT5]: the protein stability index came out at 4.26 ± 0.78 under setting [1] and 3.58 ± 0.081 under setting [2].
